The test system of this data set is L-pyroglutamyl-L-prolyl-L-arginine-p-nitroaniline hydrochloride.

One substance from patent US20140127127 can be followed below.

Chain of recombinant human hepsin extracellular region (Ser46 to Leu417), produced in P. pastoris (chain, as listed by the source): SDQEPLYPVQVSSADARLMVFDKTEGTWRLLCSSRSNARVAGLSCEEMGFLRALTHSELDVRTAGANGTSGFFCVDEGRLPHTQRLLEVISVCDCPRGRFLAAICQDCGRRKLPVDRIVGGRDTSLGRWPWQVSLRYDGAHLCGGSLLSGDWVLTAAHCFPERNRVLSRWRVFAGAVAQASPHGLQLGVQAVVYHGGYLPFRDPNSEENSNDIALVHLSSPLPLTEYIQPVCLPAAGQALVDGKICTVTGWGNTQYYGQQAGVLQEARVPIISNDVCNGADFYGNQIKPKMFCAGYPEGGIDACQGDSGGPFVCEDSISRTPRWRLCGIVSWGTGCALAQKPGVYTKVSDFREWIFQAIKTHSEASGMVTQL

Turning to “recombinant human hepsin extracellular region (Ser46 to Leu417), produced in P. pastoris”, the Km is recorded as 0.4 nM hepsin, Km=170 µM and the “enzymatic cleavage of chromogenic substrate” value is on record as “The purified hepsin was enzymatically active (FIG. 1B), cleaving the chromogenic serine protease substrate pyroGlu-Pro-Arg-pNA”.
